The target of test [1] is T1, ヒト可溶性CD4 (human soluble CD4 prepared in Example 2, C-terminal FLAG-tag, from COS7 cells) (human, UniProt P01730 26-396).
T1 construct: extracellular domain; no cleavage site is stated; also called ヒトCD4; CD4分子
The experiment in a line: SPR (BIAcore 2000), soluble CD4 amine-coupled on CM5, antibody (50 ug/ml) as analyte. (In general: In SPR one partner is held on a chip, and binding of the other changes the refractive index at the surface.)

Test [2] concerns the target T1, ヒト可溶性CD4 (human soluble CD4 prepared in …). In words: SPR (BIAcore 2000), antibody amine-coupled on CM5, soluble CD4 as analyte.

This note sets out measurements from JPH11332563A (dated 1999).

B1: 4H5 抗体 (monoclonal antibody produced by Mouse-Mouse hybridoma 4H5, FERM P-16807) (antibody, IgG1, V domains shown)
VH: QVQLQQSGPELVKPGASVKMSCKASGYTFTDYVINWLNQRTGQGLEWIGEIYPGSGSAYYNEMFKGKATLTADKSSNTAYMQLSSLTSEDSAVYFCARRGTGTGFAYWGRGTLVTVSA
VL: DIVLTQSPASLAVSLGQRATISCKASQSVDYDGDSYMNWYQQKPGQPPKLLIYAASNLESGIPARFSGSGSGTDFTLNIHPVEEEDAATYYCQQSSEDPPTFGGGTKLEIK
notes: also called 4H5 antibody; 抗ヒトCD4抗体 4H5
With B1, in test [1], the Kd – broadly, the equilibrium constant for the complex coming apart – turned out to be 0.808 nM; the koff (in general, the first-order rate constant of dissociation) was 5.33e-06 s⁻¹; the on-rate (kon) – broadly, a measure of how fast the partners come together – was determined as 6600 M⁻¹ s⁻¹. In addition, in test [2], binding was put at a Kd of 1.71 nM, the “fold higher binding affinity than 13B8.2抗体 (comparison of KD)” value is about 4.4 fold, the koff amounted to 0.000231 s⁻¹ and the on-rate (kon) came to 135000 M⁻¹ s⁻¹.

B2: キメラ 4H5抗体 (ヒトマウスキメラ抗CD4抗体, expressed from pG14H5 in COS7 cells) (antibody, V domains shown)
VH: QVQLQQSGPELVKPGASVKMSCKASGYTFTDYVINWLNQRTGQGLEWIGEIYPGSGSAYYNEMFKGKATLTADKSSNTAYMQLSSLTSEDSAVYFCARRGTGTGFAYWGRGTLVTVSA
VL: not shown
In the case of B2, in test [1], the affinity, expressed as Kd, was 1.24 nM; the koff came to 2.92e-05 s⁻¹; the association rate constant (kon) was 23600 M⁻¹ s⁻¹.
